Results reported in US20250367237A1 (TENEOBIO, published 2025).

T1: human c-Kit, GNNK- isoform, expressed on SEM cells (human, UniProt P10721 26-976)
T1 chain: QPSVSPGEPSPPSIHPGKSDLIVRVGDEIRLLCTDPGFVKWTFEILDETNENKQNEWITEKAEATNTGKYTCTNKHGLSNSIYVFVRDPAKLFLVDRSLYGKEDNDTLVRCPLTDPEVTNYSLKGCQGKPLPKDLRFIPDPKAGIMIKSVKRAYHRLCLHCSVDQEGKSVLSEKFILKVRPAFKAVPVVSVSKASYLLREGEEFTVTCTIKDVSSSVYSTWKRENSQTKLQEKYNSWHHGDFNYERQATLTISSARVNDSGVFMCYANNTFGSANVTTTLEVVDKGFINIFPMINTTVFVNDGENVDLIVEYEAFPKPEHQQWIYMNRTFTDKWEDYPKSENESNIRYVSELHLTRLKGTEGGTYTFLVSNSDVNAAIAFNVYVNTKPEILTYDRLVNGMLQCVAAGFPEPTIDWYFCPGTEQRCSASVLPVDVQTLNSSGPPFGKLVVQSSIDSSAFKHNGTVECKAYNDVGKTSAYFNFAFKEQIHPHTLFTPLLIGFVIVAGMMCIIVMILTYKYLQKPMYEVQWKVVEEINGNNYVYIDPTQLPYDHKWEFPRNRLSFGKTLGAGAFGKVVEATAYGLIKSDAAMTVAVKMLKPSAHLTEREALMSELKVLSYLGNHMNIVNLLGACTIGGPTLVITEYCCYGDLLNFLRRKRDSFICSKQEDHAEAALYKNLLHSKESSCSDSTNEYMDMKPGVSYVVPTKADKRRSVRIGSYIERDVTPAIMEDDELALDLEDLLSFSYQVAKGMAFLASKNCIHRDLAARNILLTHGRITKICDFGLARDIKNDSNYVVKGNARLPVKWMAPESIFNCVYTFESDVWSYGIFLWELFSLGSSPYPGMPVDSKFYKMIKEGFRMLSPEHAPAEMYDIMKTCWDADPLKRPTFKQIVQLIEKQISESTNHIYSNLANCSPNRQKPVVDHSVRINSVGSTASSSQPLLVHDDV

B1: anti-c-Kit single domain antibody Clone ID # 408198 (VHH)
VHH: QLQLQESGPGLVKPSETLSLTCTVSGGSISSSSYYWGWIRQPPGKGLEWIGSIDYNGGTYNNPSLKSRVTISVDTSKNQFSLKLSYVTAADTAVYYCARQNPRRYASGASDYRGQGTLVTVSS
notes: also called F18 family
B2: anti-c-Kit single domain antibody Clone ID # 408366 (VHH)
VHH: EVQLLESGGGLVQPGGSLRLSCAASGLTISTYAMSWVRQAPGKGLEWVSAISTGGSSTYYADSVKGRFTISRDNSKNTLYLQMNSLRAEDTAVYYCATGYDSSGHYYGGFDYRGQGTLVTVSS
notes: also called F06 family
B3: anti-c-Kit single domain antibody Clone ID # 407921 (VHH)
VHH: EVQLLESGGGLVQPGGSLRLSCAASGFTFDSYAMSWVRQAPGKGLEWVSAISVRGGSTYYADSVKGRFTISRDNSKNTLYLQMNSLRAEDTAVYSCATGYDPSGHYYGGFDYRGQGTLVTVSS
notes: also called F06 family
B4: anti-c-Kit single domain antibody Clone ID # 408389 (VHH)
VHH: EVQLLESGGGLVQPGGSLRLSCAASGFTFDSYAMSWVRQAPGEGLEWVSAISTGGGSTYYADSVKGRFTISRDNSKNMLFLQMNSLRAEDTAVYSCATGYDSSGYYYGGFDYRGQGTLVTVSS
notes: also called F06 family
B5: anti-c-Kit single domain antibody Clone ID # 407922 (VHH)
VHH: EVQLLESGGGLVQPGGSLRLSCAASGLTISSYAMSWVRQAPGKGLEWVSAISTGGSRTYYADSVKGRFTISRDNSKNTLYLQMNSLRAEDTAVYFCATGYDSSGHYYGGFDYRGQGTLVTVSS
notes: also called F06 family

How the values were obtained:
[1] = target: T2, human c-Kit expressed on NOMO-1 cells (human, UniProt P10721 26-976); test: flow cytometry, antibody supernatant on NOMO-1 cells expressing c-Kit, PE secondary
T2 construct: Endogenous c-Kit of the NOMO-1 AML cell line
Experimental: (§1) Pelleted cells were resuspended in flow buffer (lx phosphate buffered saline (PBS), 1% bovine serum albumin (BSA), and 0.1% NaN₃) at 1.25×10⁶ cells/mL. Antibody-containing supernatants were diluted 1:5 in flow buffer and 40 μL cells plus 10 μL diluted antibody supernatant were incubated for 30 minutes at 4° C. Cells were washed with flow buffer and resuspended in 50 μL phycoerythrin (PE)-conjugated secondary antibody (Southern Biotech #2042-09) diluted in flow buffer to 1.25 μg/mL and incubated for 20 minutes at 4° C. After two wash steps, cells were resuspended in flow buffer and analyzed using a Guava easyCyte 8HT system. Table E1 summarizes the target binding activity of the anti-c-Kit single domain antibodies as fold over background MFI signal.

[2] = target: T1, human c-Kit, GNNK- isoform, expressed …; test: flow cytometry, antibody supernatant on SEM cells expressing human c-Kit GNNK-, PE secondary
[3] = target: T3, human c-Kit, GNNK+ isoform, expressed on SEM cells (human, UniProt P10721 26-976); test: flow cytometry, antibody supernatant on SEM cells expressing human c-Kit GNNK+, PE secondary
T3 construct: also called SEM (GNNK+); CD117
Experimental: as §1

[4] = target: T1, human c-Kit, GNNK- isoform, expressed …; test: flow cytometry cell binding dose curve, SEM cells expressing human GNNK- c-Kit
[5] = target: T2, human c-Kit expressed on NOMO-1 cells; test: flow cytometry cell binding dose curve, NOMO-1 cells expressing human c-Kit
Experimental: (§2) The single domain antibodies were tested at a starting concentration of 50 nM, followed by 5-fold serial dilutions for an 8-point dose curve. All washes and dilutions of cells, antibodies, and reagents were performed using flow buffer (lx phosphate buffered saline (PBS), 1% bovine serum albumin (BSA), and 0.1% NaN₃). Cells were pelleted and resuspended at 1×10⁶ cells/mL in flow buffer. Then, 50 μL cells were combined with 50 μL of test antibody and incubated 30 minutes at 4° C., followed by two wash steps with flow buffer. Cells were then resuspended in 50 μL PE-conjugated secondary diluted to 1.25 μg/mL (Southern Biotech #2042-09) and incubated for 20 minutes at 4° C. After two wash steps, cells were resuspended in flow buffer and analyzed using a BD Celesta system. PE mean fluorescence intensity was plotted as a fold over background (cells incubated with secondary detection antibody only).
(§3) To determine cell binding EC50 values for example anti-c-Kit single domain antibodies of the present disclosure, cell binding dose curves were performed on SEM cells expressing human GNNK+c-Kit isoform, SEM cells expressing human GNNK− c-Kit isoform, and NOMO-1 cells expressing human c-Kit. The single domain antibodies were tested at a starting dose of 50 nM, followed by 5-fold serial dilutions for an 8-point dose curve as described in Example 2. The transformed data were plotted as an xy-graph using the non-linear regression curve fit (available in GraphPad Prism 8.4.3) to obtain the EC50 values (nM), which are summarized in Table E2.

[6] = target: T3, human c-Kit, GNNK+ isoform, expressed …; test: flow cytometry cell binding dose curve, SEM cells expressing human GNNK+ c-Kit
Experimental: as §2, §3

[7] = target: T4, recombinant human c-Kit (Acro Biosystems, #CD7-H52H4) (human, UniProt P10721 26-520); test: BLI (Octet HTX), antibody on AHC sensors, c-Kit in solution, 1:1 model
T4 construct: Bought protein; It was loaded on Ni-NTA sensors for binning, so it probably carries a His tag; also called antigen
Experimental: Table E3 summarizes affinity and epitope bin information for example anti-c-Kit single domain antibodies of the present disclosure. The affinity of each single domain antibody to recombinant human c-Kit (Acro Biosystems, #CD7-H52H4) was measured by Bio-layer interferometry (BLI) using an Octet HTX. AHC (Anti-hIgG Fc Capture) sensors were used to immobilize test antibody at 5 μg/mL. After baseline readings, sensors were dipped into antigen solutions (starting at 500 nM followed by a 7-point, 2-fold dilution series). Association and dissociation were measured for 180 and 240 seconds, respectively. Data were analyzed with Octet Data Analysis v11.0 HT (ForteBio) using a standard 1:1 binding model. Epitope bins for the single domain antibodies were determined by an in-tandem competition BLI binding experiment using an Octet HTX. The antigen (5 μg/mL) was loaded on the sensor Ni-NTA sensor, followed by a baseline in kinetic buffer. The antigen coated sensor was then dipped into a saturating concentration Antibody 1. A second baseline was then set for 300 seconds. The antigen-Antibody 1 complex was dipped into Antibody 2 solution for 180 seconds and then allowed to dissociate.

| Binder | fold over background MFI signal [1] | fold over background MFI signal [2] | fold over background MFI signal [3] | EC50 [4] | EC50 [5] | EC50 [6] | Kd [7] |
| --- | --- | --- | --- | --- | --- | --- | --- |
| B1 | 45.7 fold over background | 103 fold over background | 388 fold over background | 0.58 nM | 0.32 nM | 0.25 nM | 7.28 nM |
| B2 | 43.2 fold over background | 1760 fold over background | 945 fold over background | 0.09 nM | 0.39 nM | 0.08 nM | 4.71 nM |
| B3 | 30.5 fold over background | 1750 fold over background | 814 fold over background | 0.03 nM | 0.26 nM | 0.03 nM | 2.77 nM |
| B4 | 43.9 fold over background | 1790 fold over background | 934 fold over background | – | – | – | – |
| B5 | 31.1 fold over background | 1740 fold over background | 829 fold over background | – | – | – | – |
